Data on nine molecules can be found in patent US20240400675A1 (published 2024).

The target of assay [1] is T1, human CLDN6 (human, UniProt P56747 1-220).
T1 construct: also called Claudin 6
T1 sequence: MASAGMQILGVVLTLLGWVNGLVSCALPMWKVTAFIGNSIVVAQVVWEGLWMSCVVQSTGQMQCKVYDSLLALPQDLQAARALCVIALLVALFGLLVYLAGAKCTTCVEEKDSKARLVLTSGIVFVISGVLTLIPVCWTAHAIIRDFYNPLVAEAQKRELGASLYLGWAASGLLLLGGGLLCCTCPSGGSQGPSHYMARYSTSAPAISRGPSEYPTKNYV
Nature of the assay: flow cytometry on transfected cells. For orientation: In flow cytometry, cells or beads pass a laser one at a time.

The target in another assay is T2, human CLDN9 (human, UniProt O95484 1-217).
T2 construct: also called CLND9
T2 sequence: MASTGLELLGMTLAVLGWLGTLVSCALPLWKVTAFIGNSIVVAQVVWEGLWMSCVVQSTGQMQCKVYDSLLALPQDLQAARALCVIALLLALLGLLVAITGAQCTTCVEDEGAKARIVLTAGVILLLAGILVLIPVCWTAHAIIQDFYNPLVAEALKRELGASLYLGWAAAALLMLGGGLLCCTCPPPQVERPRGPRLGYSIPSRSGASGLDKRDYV
Nature of the assay: flow cytometry on transfected HEK293E cells. As to the method: (§1) The following experiments used to screen CLDN6 binding domains were generally performed as follows. HEK293T or HEK293E cells were respectively stably or transiently transfected to express CLDN6, CLND9, or other targets of interest. 48 hours post transfection, cells were harvested and incubated with dilutions of the indicated test articles for 1 hour at 4° C. […] Binding was then assessed via flow cytometry.

The target of assay [2] is T1, human CLDN6. The experiment in a line: flow cytometry on HEK293E cells expressing CLDN6. As to the method: as §1
For assay [3], the target named is T1, human CLDN6. The experiment in a line: flow cytometry on HEK293E cells expressing CLDN6 or CLDN9; EC50 on CLDN9 cells divided by EC50 on CLDN6 cells. As to the method: as §1

B1: XENP34220, humanized C6-30 H2L1 bivalent mAb (antibody, human IgG1, kappa, V domains shown)
VH: EVQLVQSGAEVKKPGESLRISCKTSGYTFTEYTMHWVRQMPGKSLEWMGGIDPNNGNTHYNQKFQGHVTISVDKSISTAYLQWSSLKASDTAMYYCARIYYFGRLYFDFWGAGTLVTVSS
VL: DIQMTQSPSSLSASVGDRVTITCQASEDIYNRLAWYQQKPGKVPKLLISGATSLETGVPSRFSGSGSGKDYTFTISSLQPEDIATYYCQQYWSSPLTFGGGTKVEIKR
notes: IgG1 backbone with ablation variant; copies: 2 + 2
B1: the binding result with human CLDN6 [1] was “binds”.

B2: XENP35101 having H2.8_L1 (antibody, human IgG1, kappa, V domains shown)
VH: EVQLVQSGAEVKKPGESLRISCKTSGYTFTEYTMHWVRQMPGKSLEWMGGIDPNNDNTHYNQKFQGHVTISVDKSISTAYLQWSSLKASDTAMYYCARIYYFGRLYFDFWGAGTLVTVSS
VL: DIQMTQSPSSLSASVGDRVTITCQASEDIYNRLAWYQQKPGKVPKLLISGATSLETGVPSRFSGSGSGKDYTFTISSLQPEDIATYYCQQYWSSPLTFGGGTKVEIKR
notes: Bivalent mAb; also called C6-30 H2.8_L1; copies: 2 + 2
B2: the binding result in the assay with human CLDN9 was “binds”.

B3: XENP37233 (C6-30_H2.91_L1.187), 2+1 Fab2-scFv-Fc bsAb with CD3 High-Int #1 (bispecific antibody)
heavy 1: EVQLVQSGAEVKKPGESLRISCKTSGYTFTEYTMHWVRQMPGKSLEWMGGIDPNNFNTHYNQKFQGHVTISVDKSISTAYLQWSSLKASDTAMYYCARIYYFGRLYFDFWGAGTLVTVSSASTKGPSVFPLAPSSKSTSGGTAALGCLVKDYFPEPVTVSWNSGALTSGVHTFPAVLQSSGLYSLSSVVTVPSSSLGTQTYICNVNHKPSDTKVDKKVEPKSCDKTHTCPPCPAPPVAGPSVFLFPPKPKDTLMISRTPEVTCVVVDVKHEDPEVKFNWYVDGVEVHNAKTKPREEEYNSTYRVVSVLTVLHQDWLNGKEYKCKVSNKALPAPIEKTISKAKGQPREPQVYTLPPSREEMTKNQVSLTCDVSGFYPSDIAVEWESDGQPENNYKTTPPVLDSDGSFFLYSKLTVDKSRWEQGDVFSCSVMHEALHNHYTQKSLSLSPGK
heavy 2: EVQLVQSGAEVKKPGESLRISCKTSGYTFTEYTMHWVRQMPGKSLEWMGGIDPNNFNTHYNQKFQGHVTISVDKSISTAYLQWSSLKASDTAMYYCARIYYFGRLYFDFWGAGTLVTVSSASTKGPSVFPLAPSSKSTSGGTAALGCLVKDYFPEPVTVSWNSGALTSGVHTFPAVLQSSGLYSLSSVVTVPSSSLGTQTYICNVNHKPSNTKVDKKVEPKSCGGGGSGGGGSQAVVTQEPSLTVSPGGTVTLTCGSSTGAVTTSNYANWVQQKPGKSPRGLIGGTNKRAPGVPARFSGSLLGGKAALTISGAQPEDEADYYCALWYSNHWVFGGGTKLTVLGKPGSGKPGSGKPGSGKPGSEVQLVESGGGLVQPGGSLRLSCAASGFTFSTYAMNWVRQAPGKGLEWVGRIRSKANNYATYYADSVKGRFTISRDDSKNTLYLQMNSLRAEDTAVYYCVRHGNFGDSYVSWFAYWGQGTLVTVSSGGGGSGGGGSKTHTCPPCPAPPVAGPSVFLFPPKPKDTLMISRTPEVTCVVVDVKHEDPEVKFNWYVDGVEVHNAKTKPREEQYNSTYRVVSVLTVLHQDWLNGKEYKCKVSNKALPAPIEKTISKAKGQPREPQVYTLPPSREQMTKNQVKLTCLVKGFYPSDIAVEWESNGQPENNYKTTPPVLDSDGSFFLYSKLTVDKSRWQQGNVFSCSVMHEALHNHYTQKSLSLSPGK
light: not shown
notes: copies: 1 + 1 + 2
For the molecule B3, the binding result with human CLDN6 [2] is “binds”.

B4: XENP37227 (C6-30_H1.9_L1.187), 2+1 Fab2-scFv-Fc bsAb with CD3 High-Int #1 (bispecific antibody)
heavy 1: QVQLVQSGAEVKKPGASVKVSCKTSGYTFTEYTMHWVRQAPGQSLEWMGGIDPNNANTHYNQKFQGRVTITVDKSASTAYMELSSLRSEDTAVYYCARIYYFGRLYFDFWGAGTLVTVSSASTKGPSVFPLAPSSKSTSGGTAALGCLVKDYFPEPVTVSWNSGALTSGVHTFPAVLQSSGLYSLSSVVTVPSSSLGTQTYICNVNHKPSDTKVDKKVEPKSCDKTHTCPPCPAPPVAGPSVFLFPPKPKDTLMISRTPEVTCVVVDVKHEDPEVKFNWYVDGVEVHNAKTKPREEEYNSTYRVVSVLTVLHQDWLNGKEYKCKVSNKALPAPIEKTISKAKGQPREPQVYTLPPSREEMTKNQVSLTCDVSGFYPSDIAVEWESDGQPENNYKTTPPVLDSDGSFFLYSKLTVDKSRWEQGDVFSCSVMHEALHNHYTQKSLSLSPGK
heavy 2: QVQLVQSGAEVKKPGASVKVSCKTSGYTFTEYTMHWVRQAPGQSLEWMGGIDPNNANTHYNQKFQGRVTITVDKSASTAYMELSSLRSEDTAVYYCARIYYFGRLYFDFWGAGTLVTVSSASTKGPSVFPLAPSSKSTSGGTAALGCLVKDYFPEPVTVSWNSGALTSGVHTFPAVLQSSGLYSLSSVVTVPSSSLGTQTYICNVNHKPSNTKVDKKVEPKSCGGGGSGGGGSQAVVTQEPSLTVSPGGTVTLTCGSSTGAVTTSNYANWVQQKPGKSPRGLIGGTNKRAPGVPARFSGSLLGGKAALTISGAQPEDEADYYCALWYSNHWVFGGGTKLTVLGKPGSGKPGSGKPGSGKPGSEVQLVESGGGLVQPGGSLRLSCAASGFTFSTYAMNWVRQAPGKGLEWVGRIRSKANNYATYYADSVKGRFTISRDDSKNTLYLQMNSLRAEDTAVYYCVRHGNFGDSYVSWFAYWGQGTLVTVSSGGGGSGGGGSKTHTCPPCPAPPVAGPSVFLFPPKPKDTLMISRTPEVTCVVVDVKHEDPEVKFNWYVDGVEVHNAKTKPREEQYNSTYRVVSVLTVLHQDWLNGKEYKCKVSNKALPAPIEKTISKAKGQPREPQVYTLPPSREQMTKNQVKLTCLVKGFYPSDIAVEWESNGQPENNYKTTPPVLDSDGSFFLYSKLTVDKSRWQQGNVFSCSVMHEALHNHYTQKSLSLSPGK
light: not shown
notes: copies: 1 + 1 + 2
For B4, in the assay with human CLDN6 [2], the binding result is reported as “binds”.

B5: XENP37231 (C6-30_H1.24_L1.187), 2+1 Fab2-scFv-Fc bsAb with CD3 High-Int #1 (bispecific antibody)
heavy 1: QVQLVQSGAEVKKPGASVKVSCKTSGYTFTEYTMHWVRQAPGQSLEWMGGIDPNNGNTHYNQKFQGRVTITVDKSASTAYMELSSLRSEDTAVYYCARIYYLGRLYFDFWGAGTLVTVSSASTKGPSVFPLAPSSKSTSGGTAALGCLVKDYFPEPVTVSWNSGALTSGVHTFPAVLQSSGLYSLSSVVTVPSSSLGTQTYICNVNHKPSDTKVDKKVEPKSCDKTHTCPPCPAPPVAGPSVFLFPPKPKDTLMISRTPEVTCVVVDVKHEDPEVKFNWYVDGVEVHNAKTKPREEEYNSTYRVVSVLTVLHQDWLNGKEYKCKVSNKALPAPIEKTISKAKGQPREPQVYTLPPSREEMTKNQVSLTCDVSGFYPSDIAVEWESDGQPENNYKTTPPVLDSDGSFFLYSKLTVDKSRWEQGDVFSCSVMHEALHNHYTQKSLSLSPGK
heavy 2: QVQLVQSGAEVKKPGASVKVSCKTSGYTFTEYTMHWVRQAPGQSLEWMGGIDPNNGNTHYNQKFQGRVTITVDKSASTAYMELSSLRSEDTAVYYCARIYYLGRLYFDFWGAGTLVTVSSASTKGPSVFPLAPSSKSTSGGTAALGCLVKDYFPEPVTVSWNSGALTSGVHTFPAVLQSSGLYSLSSVVTVPSSSLGTQTYICNVNHKPSNTKVDKKVEPKSCGGGGSGGGGSQAVVTQEPSLTVSPGGTVTLTCGSSTGAVTTSNYANWVQQKPGKSPRGLIGGTNKRAPGVPARFSGSLLGGKAALTISGAQPEDEADYYCALWYSNHWVFGGGTKLTVLGKPGSGKPGSGKPGSGKPGSEVQLVESGGGLVQPGGSLRLSCAASGFTFSTYAMNWVRQAPGKGLEWVGRIRSKANNYATYYADSVKGRFTISRDDSKNTLYLQMNSLRAEDTAVYYCVRHGNFGDSYVSWFAYWGQGTLVTVSSGGGGSGGGGSKTHTCPPCPAPPVAGPSVFLFPPKPKDTLMISRTPEVTCVVVDVKHEDPEVKFNWYVDGVEVHNAKTKPREEQYNSTYRVVSVLTVLHQDWLNGKEYKCKVSNKALPAPIEKTISKAKGQPREPQVYTLPPSREQMTKNQVKLTCLVKGFYPSDIAVEWESNGQPENNYKTTPPVLDSDGSFFLYSKLTVDKSRWQQGNVFSCSVMHEALHNHYTQKSLSLSPGK
light: not shown
notes: copies: 1 + 1 + 2
Turning to B5, the binding result with human CLDN6 [2] is on record as “binds”.

B6: XENP34219, humanized C6-30 H1L2 bivalent mAb (antibody, human IgG1, kappa, V domains shown)
VH: QVQLVQSGAEVKKPGASVKVSCKTSGYTFTEYTMHWVRQAPGQSLEWMGGIDPNNGNTHYNQKFQGRVTITVDKSASTAYMELSSLRSEDTAVYYCARIYYFGRLYFDFWGAGTLVTVSS
VL: DIQMTQSPDSLAVSLGERATINCKASEDIYNRLAWYQQKPGQVPKLLISGATSLETGVPSRFSGSGSGKDYTLTISSLQAEDVAVYYCQQYWSSPLTFGGGTKVEIKR
notes: IgG1 with ablation variant; copies: 2 + 2
Turning to B6, the binding result with human CLDN6 [1] is “binds”.

B7: XENP34218, humanized C6-30 H1L1 bivalent mAb (antibody, human IgG1, kappa, V domains shown)
VH: QVQLVQSGAEVKKPGASVKVSCKTSGYTFTEYTMHWVRQAPGQSLEWMGGIDPNNGNTHYNQKFQGRVTITVDKSASTAYMELSSLRSEDTAVYYCARIYYFGRLYFDFWGAGTLVTVSS
VL: DIQMTQSPSSLSASVGDRVTITCQASEDIYNRLAWYQQKPGKVPKLLISGATSLETGVPSRFSGSGSGKDYTFTISSLQPEDIATYYCQQYWSSPLTFGGGTKVEIKR
notes: IgG1 backbone with E233P/L234V/L235A/G236del/S267K ablation variant; also called XENP34218_HIL1
Regarding B7, the “CLDN9/CLDN6 EC50 ratio” value in the assay with human CLDN6 [3] turned out to be 23.

B8: XENP36972 having H1_L1.187 (antibody, human IgG1, kappa, V domains shown)
VH: QVQLVQSGAEVKKPGASVKVSCKTSGYTFTEYTMHWVRQAPGQSLEWMGGIDPNNGNTHYNQKFQGRVTITVDKSASTAYMELSSLRSEDTAVYYCARIYYFGRLYFDFWGAGTLVTVSS
VL: DIQMTQSPSSLSASVGDRVTITCQASEDIYNRLAWYQQKPGKVPKLLISGATSLETGVPSRFSGSGSGKDYTFTISSLQPEDIATYYCQQYWSAPLTFGGGTKVEIKR
notes: Bivalent mAb; also called C6-30 H1_L1.187; copies: 2 + 2
Consider B8, for which the “CLDN9/CLDN6 EC50 ratio” value in the assay with human CLDN6 [3] was 52.6.

B9: XENP35093 (having C6-30 H1.9_L1) (antibody, human IgG1, kappa, V domains shown)
VH: QVQLVQSGAEVKKPGASVKVSCKTSGYTFTEYTMHWVRQAPGQSLEWMGGIDPNNANTHYNQKFQGRVTITVDKSASTAYMELSSLRSEDTAVYYCARIYYFGRLYFDFWGAGTLVTVSS
VL: DIQMTQSPSSLSASVGDRVTITCQASEDIYNRLAWYQQKPGKVPKLLISGATSLETGVPSRFSGSGSGKDYTFTISSLQPEDIATYYCQQYWSSPLTFGGGTKVEIKR
notes: Bivalent mAb; also called G55A; copies: 2 + 2
On to B9, for which, in the assay with human CLDN6 [1], the binding result was “binds”.
